Experimental data: US20060058231A1 (Xencor, published 2006)
Residue numbers refer to the chain shown, from its start.

T1: BMPRII receptor-Fc fusion (UniProt Q13873 27-151, limits assumed)
T1 construct: BMP receptor-Fc fusion used at 5 ug/mL
T1 sequence (looked up): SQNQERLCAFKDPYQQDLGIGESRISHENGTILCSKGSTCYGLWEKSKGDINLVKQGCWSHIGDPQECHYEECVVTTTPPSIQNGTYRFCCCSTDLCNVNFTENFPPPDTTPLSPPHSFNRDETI

T2: BMPRIb receptor-Fc fusion (UniProt O00238 14-126)
T2 construct: BMP receptor-Fc fusion used at 5 ug/mL; also called ALK-6
T2 sequence (looked up): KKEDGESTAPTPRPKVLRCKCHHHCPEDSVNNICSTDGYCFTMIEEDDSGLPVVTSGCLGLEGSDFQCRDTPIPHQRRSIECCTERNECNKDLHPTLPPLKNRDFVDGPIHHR

B1: BMP-7 variant E60H (ligand)
chain: STGGKQRSQNRSKTPKNQEALRMASVAENSSSDQRQACKKHELYVSFRDLGWQDWIIAPHGYAAYYCEGECAFPLNSYMNATNHAIVQTLVHFINPETVPKPCCAPTQLNAISVLYFDDSSNVILKKYRNMVVRACGCH
notes: In conditioned media; numbering on mature BMP-7
B2: BMP-7 variant F93A (ligand)
chain: B1 chain with H60E, F93A
notes: as for B1
B3: BMP-7 variant F73S (ligand)
chain: B1 chain with H60E, F73S
notes: as for B1
B4: BMP-7 variant F93D (ligand)
chain: B1 chain with H60E, F93D
notes: as for B1
B5: BMP-7 variant I57L (ligand)
chain: B1 chain with I57L, H60E
notes: as for B1
B6: BMP-7 variant F117R (ligand)
chain: B1 chain with H60E, F117R
notes: as for B1
B7: BMP-7 variant F73D (ligand)
chain: B1 chain with H60E, F73D
notes: as for B1
B8: BMP-7 variant F93G (ligand)
chain: B1 chain with H60E, F93G
notes: as for B1
B9: BMP-7 variant F93E (ligand)
chain: B1 chain with H60E, F93E
notes: as for B1
B10: BMP-7 variant F93T (ligand)
chain: B1 chain with H60E, F93T
notes: as for B1
B11: BMP-7 variant F93H (ligand)
chain: B1 chain with H60E, F93H
notes: as for B1
B12: BMP-7 variant L115A (ligand)
chain: B1 chain with H60E, L115A
notes: as for B1
B13: BMP-7 variant I86E (ligand)
chain: B1 chain with H60E, I86E
notes: as for B1
B14: BMP-7 variant E60P (ligand)
chain: B1 chain with H60P
notes: as for B1
B15: BMP-7 variant L21E (ligand)
chain: B1 chain with L21E, H60E
notes: as for B1
B16: BMP-7 variant F73Q (ligand)
chain: B1 chain with H60E, F73Q
notes: as for B1
B17: BMP-7 variant F117K (ligand)
chain: B1 chain with H60E, F117K
notes: as for B1
B18: BMP-7 variant F117S (ligand)
chain: B1 chain with H60E, F117S
notes: as for B1
B19: BMP-7 variant W52P (ligand)
chain: B1 chain with W52P, H60E
notes: as for B1
B20: BMP-7 variant L90R (ligand)
chain: B1 chain with H60E, L90R
notes: as for B1
B21: BMP-7 variant W55A (ligand)
chain: B1 chain with W55A, H60E
notes: as for B1
B22: BMP-7 variant R48E (ligand)
chain: B1 chain with R48E, H60E
notes: as for B1
B23: BMP-7 variant F73E (ligand)
chain: B1 chain with H60E, F73E
notes: as for B1
B24: BMP-7 variant I86D (ligand)
chain: B1 chain with H60E, I86D
notes: as for B1
B25: BMP-7 variant F117Y (ligand)
chain: B1 chain with H60E, F117Y
notes: as for B1
B26: BMP-7 variant F73K (ligand)
chain: B1 chain with H60E, F73K
notes: as for B1
B27: BMP-7 variant S77H (ligand)
chain: B1 chain with H60E, S77H
notes: as for B1
B28: BMP-7 variant F73N (ligand)
chain: B1 chain with H60E, F73N
notes: as for B1

Columns and labels:
Experiment in all cases: ELISA-like plate assay, captured BMP-7 from conditioned media, receptor-Fc detection
[1] = molecular target: T1, BMPRII receptor-Fc fusion
[2] = molecular target: T3, BMPRIa receptor-Fc fusion (UniProt P36894 24-152, limits assumed)
T3 construct: also called ALK-3
T3 sequence (P36894 24-152 limits assumed): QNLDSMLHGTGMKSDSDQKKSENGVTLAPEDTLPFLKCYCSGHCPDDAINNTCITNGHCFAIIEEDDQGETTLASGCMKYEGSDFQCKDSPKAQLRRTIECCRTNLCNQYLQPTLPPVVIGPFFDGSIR

[3] = molecular target: T4, ActRIIa receptor-Fc fusion (UniProt P27037 20-134, limits assumed)
T4 construct: BMP receptor-Fc fusion used at 5 ug/mL
T4 sequence (P27037 20-134 limits assumed): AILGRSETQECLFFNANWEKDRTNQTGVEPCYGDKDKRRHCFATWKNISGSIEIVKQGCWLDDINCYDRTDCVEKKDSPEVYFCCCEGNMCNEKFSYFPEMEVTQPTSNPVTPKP

[4] = molecular target: T2, BMPRIb receptor-Fc fusion

| Binder | BMPRII binding (relative to wild type = 1.0) [1] | BMPRIa binding (relative to wild type = 1.0) [2] | ActRIIa binding (relative to wild type = 1.0) [3] | BMPRIb binding (relative to wild type = 1.0) [4] |
| --- | --- | --- | --- | --- |
| B1 | 1.25 relative to wild type | 0.34 relative to wild type | 0.86 relative to wild type | 0.42 relative to wild type |
| B2 |  | 0.1 relative to wild type | 0.11 relative to wild type | 0.24 relative to wild type |
| B3 | 2.84 relative to wild type | 0.9 relative to wild type | 2.54 relative to wild type | 0.25 relative to wild type |
| B4 | 0.62 relative to wild type | 0.96 relative to wild type | 0.8 relative to wild type | 0.91 relative to wild type |
| B5 | 0.4 relative to wild type | 0.92 relative to wild type | 0.9 relative to wild type | 1.17 relative to wild type |
| B6 | 0.72 relative to wild type | 0.47 relative to wild type | 0.35 relative to wild type | 0.71 relative to wild type |
| B7 | 3.05 relative to wild type | 0.33 relative to wild type | 2.5 relative to wild type | 0.64 relative to wild type |
| B8 | 0.35 relative to wild type | 0.6 relative to wild type | 0.63 relative to wild type | 0.53 relative to wild type |
| B9 | 0.62 relative to wild type | 0.83 relative to wild type | 0.79 relative to wild type | 0.99 relative to wild type |
| B10 | 0.81 relative to wild type | 0.77 relative to wild type | 0.79 relative to wild type | 0.88 relative to wild type |
| B11 | 1.2 relative to wild type | 1.03 relative to wild type | 0.98 relative to wild type | 1.04 relative to wild type |
| B12 |  |  |  | 0.17 relative to wild type |
| B13 | 1.13 relative to wild type | 0.66 relative to wild type | 1 relative to wild type | 0.69 relative to wild type |
| B14 | 1.01 relative to wild type | 0.47 relative to wild type | 0.94 relative to wild type | 0.53 relative to wild type |
| B15 |  | 0.12 relative to wild type | 0.25 relative to wild type | 0.16 relative to wild type |
| B16 | 2.85 relative to wild type | 1.05 relative to wild type | 1.87 relative to wild type | 1.71 relative to wild type |
| B17 | 0.2 relative to wild type | 0.43 relative to wild type | 0.34 relative to wild type | 0.62 relative to wild type |
| B18 |  | 0.15 relative to wild type | 0.11 relative to wild type |  |
| B19 |  |  |  | 0.14 relative to wild type |
| B20 |  |  | 0.47 relative to wild type |  |
| B21 |  | 0.1 relative to wild type |  | 0.23 relative to wild type |
| B22 |  | 0.45 relative to wild type | 0.34 relative to wild type |  |
| B23 | 1.77 relative to wild type | 0.55 relative to wild type | 1.87 relative to wild type | 1.23 relative to wild type |
| B24 | 1.31 relative to wild type | 1.03 relative to wild type | 1.09 relative to wild type | 1.18 relative to wild type |
| B25 | 0.96 relative to wild type | 1.07 relative to wild type | 1.03 relative to wild type | 0.73 relative to wild type |
| B26 | 0.38 relative to wild type | 0.69 relative to wild type | 0.61 relative to wild type | 1.14 relative to wild type |
| B27 |  | 0.29 relative to wild type | 0.42 relative to wild type | 0.3 relative to wild type |
| B28 | 0.85 relative to wild type | 0.51 relative to wild type | 0.89 relative to wild type | 0.95 relative to wild type |
